According to paper PMC8686072:

Target: DCLK1 KD (DCLK1 kinase domain lacking the inhibitory C-terminal tail) (human) (UniProt O15075)
Experiment: SPR

Chain of UniProt O15075 (O15075 390-647): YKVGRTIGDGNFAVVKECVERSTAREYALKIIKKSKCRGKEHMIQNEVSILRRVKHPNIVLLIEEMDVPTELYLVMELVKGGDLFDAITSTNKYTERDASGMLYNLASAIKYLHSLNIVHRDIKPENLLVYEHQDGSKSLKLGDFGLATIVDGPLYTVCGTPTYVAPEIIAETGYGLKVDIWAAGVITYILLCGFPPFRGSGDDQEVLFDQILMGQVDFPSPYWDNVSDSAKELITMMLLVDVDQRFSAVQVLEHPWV

DCLK1 AID peptide (C-terminal autoinhibitory domain of DCLK1 isoform 2)
Kd: 155 µM
